Results as given in patent publication US20140193417A1 (LUDWIG INSTITUTE FOR CANCER RESEARCH, published 2014).

Legend:
[1] = molecular target: T1, synthetic 29mer peptide representing amino acids 312-340 of the NaPi2b protein (human); experiment: peptide ELISA and dot blot
T1 construct: no end modifications stated
T1 peptide: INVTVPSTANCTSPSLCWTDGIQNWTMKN

murine NaPi2b protein = molecular target: T2, murine NaPi2b protein (mouse, UniProt Q9DBP0 1-697); experiment: Western blot of mouse tissues (data not shown)
T2 construct: also called the murine protein; murine counterpart
T2 sequence (looked up): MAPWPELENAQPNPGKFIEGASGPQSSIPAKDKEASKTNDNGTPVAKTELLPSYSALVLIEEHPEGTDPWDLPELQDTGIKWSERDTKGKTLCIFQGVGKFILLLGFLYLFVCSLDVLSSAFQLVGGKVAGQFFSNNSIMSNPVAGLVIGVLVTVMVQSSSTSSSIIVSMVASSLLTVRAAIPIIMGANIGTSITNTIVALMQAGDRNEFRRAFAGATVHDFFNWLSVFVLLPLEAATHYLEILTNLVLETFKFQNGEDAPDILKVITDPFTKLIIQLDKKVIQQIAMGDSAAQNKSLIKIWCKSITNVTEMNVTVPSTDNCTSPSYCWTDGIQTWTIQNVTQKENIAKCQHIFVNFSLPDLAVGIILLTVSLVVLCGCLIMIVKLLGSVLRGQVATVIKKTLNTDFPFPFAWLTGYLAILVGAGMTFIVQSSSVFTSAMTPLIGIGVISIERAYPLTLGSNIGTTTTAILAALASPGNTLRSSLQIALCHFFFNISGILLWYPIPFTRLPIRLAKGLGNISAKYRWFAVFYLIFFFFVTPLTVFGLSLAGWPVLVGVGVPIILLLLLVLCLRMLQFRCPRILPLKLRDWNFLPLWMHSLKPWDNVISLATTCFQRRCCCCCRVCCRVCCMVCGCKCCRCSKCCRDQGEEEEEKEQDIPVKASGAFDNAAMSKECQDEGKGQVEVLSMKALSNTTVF

[2] = molecular target: T3, GST/NaPi2b-L fusion protein (aa 188-361 of NaPi2b) (human, UniProt O95436 188-361); experiment: Western blot
T3 construct: range 188-361; GST is put first here (pGEX vector); also called GST-fusion protein (covering aa 188-361 of NaPi2b); bacterial fusion protein; not shown: glutathione S-transferase (GST) tag of vector pGEX4T1
T3 sequence (looked up): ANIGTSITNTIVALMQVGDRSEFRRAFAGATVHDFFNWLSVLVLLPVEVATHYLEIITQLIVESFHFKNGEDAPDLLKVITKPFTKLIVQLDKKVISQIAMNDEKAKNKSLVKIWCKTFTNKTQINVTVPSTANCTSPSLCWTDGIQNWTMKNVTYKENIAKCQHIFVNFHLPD

[3] = molecular target: T4, NaPi2b mutant T330V expressed in stably transfected HEK293 cells (pcDNA3.1/NaPi2b-T330V) (human, UniProt O95436 1-690); experiment: Western blot of lysates of stably transfected HEK293 cells
T4 construct: whole, on cells; Made by site-directed mutagenesis of pcDNA3.1/NaPi2b; also called mutant form T330V; not shown: EE-tag
T4 sequence (looked up): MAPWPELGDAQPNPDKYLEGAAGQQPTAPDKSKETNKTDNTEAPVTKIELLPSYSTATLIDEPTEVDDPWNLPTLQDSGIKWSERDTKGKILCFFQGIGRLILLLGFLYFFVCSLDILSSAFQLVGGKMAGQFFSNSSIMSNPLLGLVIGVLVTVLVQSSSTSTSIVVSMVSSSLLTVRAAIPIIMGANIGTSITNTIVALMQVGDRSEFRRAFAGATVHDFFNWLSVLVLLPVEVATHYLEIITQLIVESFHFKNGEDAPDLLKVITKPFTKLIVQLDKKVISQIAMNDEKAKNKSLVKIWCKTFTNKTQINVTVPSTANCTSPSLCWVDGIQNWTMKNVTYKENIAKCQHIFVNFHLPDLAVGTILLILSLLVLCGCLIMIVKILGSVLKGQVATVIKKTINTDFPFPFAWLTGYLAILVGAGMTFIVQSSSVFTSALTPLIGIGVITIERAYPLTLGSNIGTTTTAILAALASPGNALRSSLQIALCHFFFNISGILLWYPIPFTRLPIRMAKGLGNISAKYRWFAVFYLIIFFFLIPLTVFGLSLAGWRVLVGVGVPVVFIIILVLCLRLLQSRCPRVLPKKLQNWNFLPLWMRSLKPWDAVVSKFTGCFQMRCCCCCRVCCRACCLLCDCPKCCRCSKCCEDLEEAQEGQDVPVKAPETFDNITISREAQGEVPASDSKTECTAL
Experimental: Stably transfected HEK293 cells were lysed in buffer containing 10 mM Tris-HCl, pH 7.5, 150 mM NaCl, 10 mM MgCL₂, 0,5% NP-40, and a mixture of Halt Protease Inhibitor Cocktail (Pierce, USA). Protein concentration was measured by Bradford assay (Pierce, USA), and equal amounts of proteins (10 μg) were separated in 8% SDS-PAGE and blotted to polyvinylidene difluoride (PVDF) membrane (Millipore, USA). The membrane was blocked with 3% BSA in PBS (phosphate-saline buffer) containing 0.1% Tween-20 (PBST) for 1 h. Anti-NaPi2b and anti-EE-tag antibodies were incubated with membranes at 4° C. overnight. Generation of monoclonal antibodies against the extracellular loop of transporter was previously described. After washing with PBST, HRP-conjugated goat anti-mouse IgG 1:5000 (Promega, USA) was added to the membrane for 1 h at RT. Western blots were developed using the ECL system (Amersham, Sweden) and then exposed to Agfa X-ray film.
The expression of NaPi2b (wild type and mutant forms) in HEK293 was confirmed by Western blot analysis of total cell lysates with anti-EE monoclonal antibody (FIG. 22A) or anti-NaPi2b monoclonal antibodies (FIG. 22B).

[4] = molecular target: T5, T330M variant 312-340 peptide (SLC34A p312-340 T330M) (human); experiment: dot blot
T5 construct: also called T330M P312-340 peptide
T5 peptide: SPSLCWMDGIQNWTM
Excerpt: Corut et al have studied and identified mutations in SLC34A2 that are predicted to cause pulmonary alveolar microlithiasis and are possibly also associated with testicular microlithiasis (Corut, A. et al (2006) AM J. Hum Genet. 79:650-656). While analyzing normal controls, Corut identified a novel variant c.989C-T (p. T330M), whereby threonine is replaced with methionine, substituting a polar residue with a non-polar residue. This is presumed to inactivate the SLC34A2 protein. This T330M mutation is located within the MX35 epitope peptide region of SLC34A2. […] While MX35, L2 and L3 antibodies bind p312-340 peptide SEQ ID NO: 8, none of these antibodies bind T330M P312-340 peptide by dot blot analysis.

[5] = molecular target: T6, GST/NaPi2b-4L fusion protein (311-340aa) (human, UniProt O95436 311-340); experiment: Western blot of truncated GST fusion proteins
T6 construct: Expressed in E. coli; not shown: glutathione S-transferase (GST) tag of vector pGEX4T1
T6 chain (looked up): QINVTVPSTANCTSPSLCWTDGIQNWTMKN

B1: Murine mAb MX35 (IgG1) (antibody, V domains shown)
VH: QVQLKQSGAELVKPGASVKMSCKASGYTFTGYNIHWVKQTPGQGLEWIGAIYPGNGDTSYKQKFRGKASLTADTSSSTVYMQLSSLTSEDSAVYYCARGETARATFAYWGQGTLVTVSA
VL: DIQMTQTTSSLPASLGDRVTISCSASQDIGNFLNWYQQKPDGTVKVLIYYTSSLYSGVPSRFSGSGSGTDYSLTISNLEPEDIATYYCQQYSKLPLTFGAGTKLELKR
notes: also called MX35 MAb; monoclonal antibody MX35
- binding result [1]: binds
- binding result (murine NaPi2b protein): no binding
- binding result [2]: binds
- binding result [3]: no binding
- binding result [4]: no binding
- binding result [5]: binds
